Measurements as given in patent US10590386B2, “Methods and compositions for preparing cardiomyocytes from stem cells and uses thereof” (Insitute of Biophysics, Chinese Academy of Sciences, priority 2010, dated 2020).
Entries after “also recorded” stand apart in the source; their conditions may differ. Where two headings read alike, the source gives them in different places.

B1: Noggin: BMP antagonist protein, added at 250 ng/ml (protein, UniProt Q13253 28-232, looked up)
Noggin: QHYLHIRPAPSDNLPLVDLIEHPDPIFDPKEKDLNETLLRSLLGGHYDPGFMATSPPEDRPGGGGGAAGGAEDLAELDQLLRQRPSGAMPSEIKGLEFSEGLAQGKKQRLSKKLRRKLQMWLWSQTFCPVLYAWNDLGSRFWPRYVKVGSCFSKRSCSVPEGMVCKPSKSVHLTVLRWRCQRRGGQRCGWIPIQYPIISECKCSC

Legend:
Type in all cases: cell-based, human
hESC line H7 [1] = test: Cardiac differentiation efficiency of hESCs, CTNT antibody staining and flow cytometry on day 14
Experimental: (§1) Undifferentiated hESC line H7 from the WiCell Research Institute was maintained on matrigel-coated plates, as previously described^37. In the basic cardiac induction protocol (BP), undifferentiated hESCs were seeded on gelatin-coated plates at a density of 1-5×10^5 cells/cm^2 and cultured with mouse embryonic fibroblast conditioned medium for 3 days until fully confluent. To initiate cell differentiation, the medium was changed to RPMI1640, supplemented with B27 (Invitrogen). Cells were treated with 25 ng/ml BMP4 and 6 ng/ml bFGF at day 1, 100 ng/ml activin A at day 2, and 200 ng/ml DKK1 (R&D Systems) from day 6 to day 11. The medium was changed every 3 days after day 11 (FIG. 1). 250 ng/ml Noggin, 1 μM RA (Sigma) or 1 μM RAi were added to the cell culture at the times specified in FIGS. 1A-C. Spontaneous beating clusters were typically observed at days 10 to 11. Cardiac differentiation efficiency was analyzed on day 14 with CTNT antibody staining and flow cytometry.
Differentiated cell clusters were dissociated into single cells with 0.25% trypsin-EDTA, which were then fixed and stained with anti-human CTNT antibody (R&D Systems) and goat anti-mouse FITC-conjugated secondary antibody (Santa Cruz) in PBS plus 0.5% BSA and 0.1% saponin (Sigma) at 4° C. Stained cells were kept in 4% paraformaldehyde for subsequent quantitative analysis. Data were collected using FACScalibur (Becton Dickinson) and analyzed with FlowJo software (Treestar).

hESC line H7 [2] = test: Immunostaining and Western blotting of cardiac markers in 60 day-old differentiated cultures
Experimental: as §1
Sixty (60) day-old differentiated cultures were digested with 0.25% trypsin-EDTA, and the cells were plated on gelatin-coated coverslips for 5 days, allowing full attachment to occur. Cells were then fixed in 4% paraformaldehyde, and incubated with primary antibodies of mouse anti-human CTNT (R&D systems), mouse anti-human α-Actinin (Sigma), mouse anti-human β-MHC (ATCC), mouse anti-human MLC-2a (Synaptic Systems), or rabbit anti-human MLC-2v (ProteinTech Group). Goat anti-mouse secondary antibody conjugated with DyLight 488 (Santa Cruz Biotechnology) and goat anti-rabbit secondary antibody conjugated with Tritc (Santa Cruz Biotechnology) were used as needed. After the nuclei were counterstained with 4′,6-diamidino-2-phenylindole (DAPI, Sigma), immunofluorescence images were visualized and recorded using an Olympus microscope system X51 or Olympus LSCM FV1000.
One well of a 24-well plate of 60 day-old differentiated cells was lysed with RIPA lysis buffer (Biomiga) for Western blotting. […]

[3] = system: hESC-derived cardiomyocytes; test: Effect of nifedipine on AP duration of hESC-derived cardiomyocytes (patch clamp); conditions: myocytes from Noggin+RA-treated cultures; FIG. 4B right
Experimental: […] to 90 day-old differentiated cultures were washed in a low Ca^2+ solution, and then incubated in an enzyme solution for 20 min at 37° C. The dissociation was completed in KB solution by gently shaking for 40 min at room temperature. The isolated cells were resuspended in DMEM plus 10% FBS, and transferred on 0.1% gelatin-coated glass coverslips, and then kept in an incubator at 37° C., 5% CO2. The composition of the low Ca^2+ solution was (in mM):120 NaCl, 5.4 KCl, 5 MgSO4, 5 Na pyruvate, 20 glucose, 20 taurine, 10 HEPES. The pH was adjusted to 7.3 with NaOH. KB solution contained (in mM): 85 KCl, 30 K2HPO4, 5 MgSO4, 1 EGTA, 2 Na2ATP, 5 Na pyruvate, 20 glucose, 20 taurine, 5 creatine, adjusted to pH 7.3 with KOH.
Action potentials of cardiomyocytes were recorded in a whole-cell patch clamp configuration, using an Axon 200B amplifier (Axon Instruments) at room temperature. Data were digitized at 20 kHz and filtered at 2 kHz, and were analyzed by PClamp 9.0. Patch pipettes (2-4MΩ resistance) were filled with an intracellular solution containing (in mM) 50 KCl, 60 K-Aspartate, 1 MgCl2, 3 Na2ATP, 10 EGTA, 10 mM HEPES, adjusted to pH 7.3 with KOH. Normal Tyrode's solution was used as an extracellular solution and contained (in mM) 140 NaCl, 5 KCl, 1 CaCl2, 1 MgCl2, 10 glucose, 10 HEPES, adjusted to pH 7.4 with NaOH.

BMP signaling = test: Western blot for phosphorylated Smad1,5,8; conditions: data not shown
Experimental: One well of a 24-well plate of 60 day-old differentiated cells was lysed with RIPA lysis buffer (Biomiga) for Western blotting. Blots were incubated with mouse anti-human CTNT, mouse anti-human β-MHC, rabbit anti-human MLC-2v, goat anti-ANF, mouse anti-human MLC-2a, mouse anti-human β-actin, rabbit anti-phospho smad1/5/8 and rabbit anti-smad1/5/8 separately, and then with HRP-conjugated goat anti-mouse or anti-rabbit antibody.

Molecule | effect on cardiac differentiation efficiency / cardiogenesis of hESCs (summary statement) (hESC line H7 [1]) | effect on cardiac differentiation (hESC line H7 [1]; RAi added between days 6 to 9, FIG. 1C) | effect on cardiac differentiation efficiency / cardiogenesis of hESCs (summary statement) (hESC line H7 [1]; listed as BMS-189453) | β-MHC expression (western blots) (hESC line H7 [2]; 60 day old RA and RAi treated cultures (with Noggin), FIG. 6) | effect on duration of atrial-like APs [3] | effect on cardiac differentiation (hESC line H7 [1]; Noggin present between days 2 and 3, FIG. 1B) | effect on cardiac differentiation (hESC line H7 [1]; Noggin present between days 2.5 and 4.5, FIG. 1B) | effect on cardiac differentiation (hESC line H7 [1]; Noggin present between days 4 and 5, FIG. 1B) | differentiation efficiency (CTNT+ cells, flow cytometry) (hESC line H7 [1]; day 14 cultures, Noggin on days 4 and 5, RAi from days 6 to 8, mean±s.e.m, FIG. 1D) | activities of BMP signaling (phosphorylated Smad1,5,8) (BMP signaling) | cTNT positive cells that are also MLC-2v positive (hESC line H7 [2]; 60 day old cultures, immunostaining, FIG. 5) | MLC-2v expression (Western blotting) (hESC line H7 [2]; 60 day-old cultures, FIG. 3C, FIG. 5)
CC1(C)CC=C(c2ccccc2)c2cc(/C=C/c3ccc(C(=O)O)cc3)ccc21 [RAi, BMS-189453, reference compound] | significantly promote cardiogenesis | markedly increased | significantly increase | evenly expressed | – | – | – | – | – | – | – | –
COC(=O)C1=C(C)NC(C)=C(C(=O)OC)C1c1ccccc1[N+](=O)[O-] [nifedipine] | – | – | – | – | No significant effect | – | – | – | – | – | – | –
B1 | significantly increase; also recorded: significantly promote cardiogenesis | – | – | – | – | slightly repressed | significantly promoted | Highest cardiac differentiation efficiencies | 50%±3.06% | reduced the activities of BMP signaling | about 35% | weak MLC-2v expression
